# Data taken from paper PMC5830531.
# pKd: −log10 of the molar value.
# Assays:
# Experiment in all cases: EMSA
# [1] = tested on: MBP-A3H m1 monomer (Homo sapiens (haplotype II)); settings: EMSA: 50 mM HEPES pH 7.5, 250 mM NaCl, 1 mM DTT, 2.5 mM EDTA, 10% glycerol, on ice 10 min, protein up to 8 uM, 8% native PAGE
# [2] = tested on: MBP-A3H m1+W115A/C116S monomer (Homo sapiens (haplotype II)); settings: EMSA: 50 mM HEPES pH 7.5, 250 mM NaCl, 1 mM DTT, 2.5 mM EDTA, 10% glycerol, on ice 10 min, protein up to 8 uM, 8% native PAGE
# [3] = tested on: MBP-A3H m1+H114A monomer (Homo sapiens (haplotype II)); settings: EMSA: 50 mM HEPES pH 7.5, 250 mM NaCl, 1 mM DTT, 2.5 mM EDTA, 10% glycerol; on ice 10 min; protein up to 8 uM; 1 nM RNA or 10 nM DNA; 8% native PAGE; n=3 …
# [4] = smeared bands, approximate, 1 nM RNA or 10 nM …, n=3, Table
substance,measurement,setting,value
8 nt ssDNA,pKd,[1]; [4],6.01
same,pKd,[2]; [4],5.53
50 nt ssRNA,pKd,"[1]; 1 nM RNA or 10 nM DNA, n=3 …",8.10
same,pKd,"[2]; 1 nM RNA or 10 nM DNA, n=3 …",7.92
same,pKd,[3],7.47
13 nt ssDNA,pKd,"[1]; approximate estimate, monomer assigned from the monomer comparison, 1 nM RNA or 10 nM DNA, n=3 …",6.57
same,pKd,"[2]; approximate estimate, 1 nM RNA or 10 nM DNA, n=3 …",6.30
